Measured values published in paper PMC6900475.

Columns and labels:
[1] = biological target: SK.Plg* activator complex of SKC1 (αG88-β_(STAB)-γG88) (group G streptococcus (GGS), G88 | group A streptococcus (GAS), STAB902 | not stated)
[2] = biological target: SK.Plg* activator complex of SKC2 (α_(STAB)-βG88-γ_(STAB)) (group A streptococcus (GAS), STAB902 | group G streptococcus (GGS), G88 | not stated)

Substance: plasminogen (natural protein)
- K m (µM), proteolytic constants: Plg activation by the SK.Plg* complex against substrate Plg 0.3 to 5.0 µM, S2251 hydrolysis at 405 nm, 37 °C [1]: 1.09 µM
- K m (µM), proteolytic constants: Plg activation by the SK.Plg* complex against substrate Plg 0.3 to 5.0 µM, S2251 hydrolysis at 405 nm, 37 °C [2]: 3.73 µM
